{"source": "patent US20180072806A1", "about": "(SHIRE HUMAN GENETIC THERAPIES, published 2018)", "key": {"[1]": {"molecular_target": "T1, recombinant human soluble Flt-1 (human, UniProt P17948 27-758)", "T1 construct": "Recombinant soluble form (immunogen bought from ABCAM); also called human sFlt-1; sFlt-1", "T1 sequence (P17948 27-758 limits assumed)": "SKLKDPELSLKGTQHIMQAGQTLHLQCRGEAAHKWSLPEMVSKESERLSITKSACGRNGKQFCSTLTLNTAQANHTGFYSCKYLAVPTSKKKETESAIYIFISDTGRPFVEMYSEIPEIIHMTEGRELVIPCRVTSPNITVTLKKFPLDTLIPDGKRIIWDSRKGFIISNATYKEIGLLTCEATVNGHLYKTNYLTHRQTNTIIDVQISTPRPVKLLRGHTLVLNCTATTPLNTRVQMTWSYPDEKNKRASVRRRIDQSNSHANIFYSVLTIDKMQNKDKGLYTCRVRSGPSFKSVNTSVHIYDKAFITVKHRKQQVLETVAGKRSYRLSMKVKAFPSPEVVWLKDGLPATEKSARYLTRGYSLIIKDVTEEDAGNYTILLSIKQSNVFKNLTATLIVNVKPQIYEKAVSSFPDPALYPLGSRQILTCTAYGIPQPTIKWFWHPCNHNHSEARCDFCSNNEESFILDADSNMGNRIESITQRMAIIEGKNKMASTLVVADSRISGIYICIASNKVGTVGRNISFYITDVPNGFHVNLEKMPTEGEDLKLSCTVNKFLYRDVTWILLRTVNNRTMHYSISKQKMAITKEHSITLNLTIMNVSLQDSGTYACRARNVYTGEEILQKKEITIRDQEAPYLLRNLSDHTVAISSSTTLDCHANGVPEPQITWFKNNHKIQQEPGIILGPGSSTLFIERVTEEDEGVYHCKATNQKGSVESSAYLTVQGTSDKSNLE", "assay": "human competition ELISA with human sFlt-1 and VEGF; blocked ligand VEGF; antibody titrated"}, "[2]": {"molecular_target": "T1, recombinant human soluble Flt-1", "assay": "VEGF:sFlt1 binding assay (competition ELISA); blocked ligand VEGF; antibody titrated"}}}
{"binder": "anti-Flt-1 antibody 21B3 (antibody, V domains shown, VL is LC_21B3; IgG with wild-type Fc; also called 21B3 WT; clone 21B3) VH: ELQLVESGGGLVQPGGSLRLSCAASGFTFRDYSMSWVRQAPGKGLEWVSAISWNGDSTYYAESMKGRFTISRDNAKNTLYLQMNSLKSEDTAVYYCAKSWATPIESLYYYGMDYWGKGTLVTVSS VL: SYELTQSPSVSVALRQTAKITCGGNNIGSQTAQWYQQKPGQAPVLVIYANNRRPSGIPERFSGSKSGNTATLTISGAQAEDEADYYCQVWDGSTQAIVFGGGTHLTVL", "values": [{"measurement": "IC50 (read off the curve)", "setting": "[1]", "result": "~3", "unit": "ng/mL"}]}
{"binder": "anti-Flt-1 antibody 27H9 (antibody, human IgG1, lambda, V domains shown, also called 27H9 WT; 27H9 WT 23/07) VH: EVQLLESGGGLVQPGGSLRLSCAASGFTFRDYSMSWVRQAPGKGLEWVSAISWNGDSTYYAESAKGRFTISRDNSKNTLYLQMNSLRAEDTAVYYCAKSWATPIESLYYYGSDYWGQGTLVTVSS VL: SYELTQPLSVSVALRQTARITCGGNNIGSQTAQWYQQKPGQAPVLVIYANNRRPSGIPERFSGSKSGNTATLTISRAQAEDEADYYCQVWDESTQAIVFGGGTKLTVLG", "values": [{"measurement": "IC50 (read off the curve)", "setting": "[2]", "result": "~10", "unit": "ng/mL"}]}
{"binder": "anti-Flt-1 antibody 27H6 (antibody, human IgG1, lambda, V domains shown) VH: ELQLVESGGGLVQPGGSLRLSCAASGFTFSDYSASWVRQAPGKGLEWVSAISWSGDSTYYAESVKGRFTIFRDNSKNTLYLQMNSLRAEDTAVYYCAKSWATPIESLYYYGSDYWGQGTLVTVSS VL: SYELTQPLSVSVALRQAAKITCGGNNIGSQTAQWYQQKPGQAPVLVIYANNRRPSGIPERFSGSKSGNTATLTISRAQAGDEADYYCQVWDGSTQAIVFGGGTKLTVLG", "values": [{"measurement": "IC50 (read off the curve)", "setting": "[2]", "result": "~6", "unit": "ng/mL"}]}
{"binder": "anti-Flt-1 antibody 27H4 (antibody, human IgG1, lambda, V domains shown) VH: ELQLVESGGGLVQPGGSLRLSCAASGFTFRDYSMSWVRQAPGKGLEWVSAISWNGDSTYYAESLKGRFTISRDNAKNTLYLQMNSLRAEDTAVYYCAKSWATPIESLYYYGSDYWGQGTLVTVSS VL: SYELTQPLSVSVALGQTARITCGGNNIGSQTAQWYQQKPGQAPVLVIYANNRRPSGIPERFSGSKSGNTATLTISRAQAEDEADYYCQVWEDSTQAIVFGGGTKLTVLG", "values": [{"measurement": "IC50 (read off the curve)", "setting": "[2]", "result": "~10", "unit": "ng/mL"}]}
